Data taken from article PMC3724922 (PLoS ONE, 2013).

B1: laforin wild type, recombinant, no epitope tag (enzyme, human, UniProt O95278 1-331, looked up)
chain: MRFRFGVVVPPAVAGARPELLVVGSRPELGRWEPRGAVRLRPAGTAAGDGALALQEPGLWLGEVELAAEEAAQDGAEPGRVDTFWYKFLKREPGGELSWEGNGPHHDRCCTYNENNLVDGVYCLPIGHWIEATGHTNEMKHTTDFYFNIAGHQAMHYSRILPNIWLGSCPRQVEHVTIKLKHELGITAVMNFQTEWDIVQNSSGCNRYPEPMTPDTMIKLYREEGLAYIWMPTPDMSTEGRVQMLPQAVCLLHALLEKGHIVYVHCNAGVGRSTAAVCGWLQYVMGWNLRKVQYFLMAKRPAVYIDEEALARAQEDFFQKFGKVRSSVCSL
notes: laforin, human, a 331 amino acid protein encoded by EPM2A; amplified from pEG202-laforin into pET21b+ (NdeI, NotI); also called laforin WT; wt laforin; source: E. coli BL21 (RIL), pET21b+-laforin, purified (amylose resin)
B2: laforin C109S/110S, recombinant, no epitope tag (enzyme, human, UniProt O95278 1-331, looked up)
chain: MRFRFGVVVPPAVAGARPELLVVGSRPELGRWEPRGAVRLRPAGTAAGDGALALQEPGLWLGEVELAAEEAAQDGAEPGRVDTFWYKFLKREPGGELSWEGNGPHHDRSSTYNENNLVDGVYCLPIGHWIEATGHTNEMKHTTDFYFNIAGHQAMHYSRILPNIWLGSCPRQVEHVTIKLKHELGITAVMNFQTEWDIVQNSSGCNRYPEPMTPDTMIKLYREEGLAYIWMPTPDMSTEGRVQMLPQAVCLLHALLEKGHIVYVHCNAGVGRSTAAVCGWLQYVMGWNLRKVQYFLMAKRPAVYIDEEALARAQEDFFQKFGKVRSSVCSL
notes: laforin, human, 331 amino acids (EPM2A), double mutant C109S/110S; source: E. coli BL21 (RIL), pET21b+, purified (amylose resin)
B3: laforin C169S, recombinant, no epitope tag (enzyme, human, UniProt O95278 1-331, looked up)
chain: MRFRFGVVVPPAVAGARPELLVVGSRPELGRWEPRGAVRLRPAGTAAGDGALALQEPGLWLGEVELAAEEAAQDGAEPGRVDTFWYKFLKREPGGELSWEGNGPHHDRCCTYNENNLVDGVYCLPIGHWIEATGHTNEMKHTTDFYFNIAGHQAMHYSRILPNIWLGSSPRQVEHVTIKLKHELGITAVMNFQTEWDIVQNSSGCNRYPEPMTPDTMIKLYREEGLAYIWMPTPDMSTEGRVQMLPQAVCLLHALLEKGHIVYVHCNAGVGRSTAAVCGWLQYVMGWNLRKVQYFLMAKRPAVYIDEEALARAQEDFFQKFGKVRSSVCSL
notes: laforin, human, 331 amino acids (EPM2A), mutant C169S; source: E. coli BL21 (RIL), pET21b+, purified (amylose resin)
B4: laforin C205S, recombinant, no epitope tag (enzyme, human, UniProt O95278 1-331, looked up)
chain: MRFRFGVVVPPAVAGARPELLVVGSRPELGRWEPRGAVRLRPAGTAAGDGALALQEPGLWLGEVELAAEEAAQDGAEPGRVDTFWYKFLKREPGGELSWEGNGPHHDRCCTYNENNLVDGVYCLPIGHWIEATGHTNEMKHTTDFYFNIAGHQAMHYSRILPNIWLGSCPRQVEHVTIKLKHELGITAVMNFQTEWDIVQNSSGSNRYPEPMTPDTMIKLYREEGLAYIWMPTPDMSTEGRVQMLPQAVCLLHALLEKGHIVYVHCNAGVGRSTAAVCGWLQYVMGWNLRKVQYFLMAKRPAVYIDEEALARAQEDFFQKFGKVRSSVCSL
notes: laforin, human, 331 amino acids (EPM2A), mutant C205S; source: E. coli BL21 (RIL), pET21b+, purified (amylose resin)
B5: laforin C250S, recombinant, no epitope tag (enzyme, human, UniProt O95278 1-331, looked up)
chain: MRFRFGVVVPPAVAGARPELLVVGSRPELGRWEPRGAVRLRPAGTAAGDGALALQEPGLWLGEVELAAEEAAQDGAEPGRVDTFWYKFLKREPGGELSWEGNGPHHDRCCTYNENNLVDGVYCLPIGHWIEATGHTNEMKHTTDFYFNIAGHQAMHYSRILPNIWLGSCPRQVEHVTIKLKHELGITAVMNFQTEWDIVQNSSGCNRYPEPMTPDTMIKLYREEGLAYIWMPTPDMSTEGRVQMLPQAVSLLHALLEKGHIVYVHCNAGVGRSTAAVCGWLQYVMGWNLRKVQYFLMAKRPAVYIDEEALARAQEDFFQKFGKVRSSVCSL
notes: laforin, human, 331 amino acids (EPM2A), mutant C250S; source: E. coli BL21 (RIL), pET21b+, purified (amylose resin)
B6: wild type laforin with an amino-terminal HIS6 epitope (enzyme, human, UniProt O95278 1-331, looked up)
chain: MRFRFGVVVPPAVAGARPELLVVGSRPELGRWEPRGAVRLRPAGTAAGDGALALQEPGLWLGEVELAAEEAAQDGAEPGRVDTFWYKFLKREPGGELSWEGNGPHHDRCCTYNENNLVDGVYCLPIGHWIEATGHTNEMKHTTDFYFNIAGHQAMHYSRILPNIWLGSCPRQVEHVTIKLKHELGITAVMNFQTEWDIVQNSSGCNRYPEPMTPDTMIKLYREEGLAYIWMPTPDMSTEGRVQMLPQAVCLLHALLEKGHIVYVHCNAGVGRSTAAVCGWLQYVMGWNLRKVQYFLMAKRPAVYIDEEALARAQEDFFQKFGKVRSSVCSL
notes: laforin, human, 331 amino acids (EPM2A); The plasmid of the His6 constructs is not described in the methods; also called laforin-WT; WT; not shown: His6, N-terminal, kept
B7: laforin C123S, recombinant, no epitope tag (enzyme, human, UniProt O95278 1-331, looked up)
chain: MRFRFGVVVPPAVAGARPELLVVGSRPELGRWEPRGAVRLRPAGTAAGDGALALQEPGLWLGEVELAAEEAAQDGAEPGRVDTFWYKFLKREPGGELSWEGNGPHHDRCCTYNENNLVDGVYSLPIGHWIEATGHTNEMKHTTDFYFNIAGHQAMHYSRILPNIWLGSCPRQVEHVTIKLKHELGITAVMNFQTEWDIVQNSSGCNRYPEPMTPDTMIKLYREEGLAYIWMPTPDMSTEGRVQMLPQAVCLLHALLEKGHIVYVHCNAGVGRSTAAVCGWLQYVMGWNLRKVQYFLMAKRPAVYIDEEALARAQEDFFQKFGKVRSSVCSL
notes: laforin, human, 331 amino acids (EPM2A), mutant C123S; source: E. coli BL21 (RIL), pET21b+, purified (amylose resin)
B8: laforin C266S, recombinant, no epitope tag (enzyme, human, UniProt O95278 1-331, looked up)
chain: MRFRFGVVVPPAVAGARPELLVVGSRPELGRWEPRGAVRLRPAGTAAGDGALALQEPGLWLGEVELAAEEAAQDGAEPGRVDTFWYKFLKREPGGELSWEGNGPHHDRCCTYNENNLVDGVYCLPIGHWIEATGHTNEMKHTTDFYFNIAGHQAMHYSRILPNIWLGSCPRQVEHVTIKLKHELGITAVMNFQTEWDIVQNSSGCNRYPEPMTPDTMIKLYREEGLAYIWMPTPDMSTEGRVQMLPQAVCLLHALLEKGHIVYVHSNAGVGRSTAAVCGWLQYVMGWNLRKVQYFLMAKRPAVYIDEEALARAQEDFFQKFGKVRSSVCSL
notes: laforin, human, 331 amino acids (EPM2A), catalytic cysteine mutant C266S; source: E. coli BL21 (RIL), pET21b+, purified (amylose resin)

Target: the molecule itself
Test: native gel or EMSA; purified recombinant proteins incubated with 10 mM H2O2, then non-reducing, non-denaturing electrophoresis, anti-laforin immunoblot

Binding result, binds:
B1

Target: the molecule itself
Test: native gel or EMSA; purified recombinant proteins, non-reducing, non-denaturing electrophoresis (SDS- and DTT-free loading buffer), immunoblot with anti-laforin or anti-HIS antibody; self-association, monomer and dimer bands

Binding result, binds:
B2
B3
B4
B5
B6
B7
B8
